Data published in patent US20060153853A1 (UNIVERSITY OF ADELAIDE, published 2006).
Residue numbers refer to the chain shown, from its start. Names and notes keep the numbering of the source.

B1: K227AHis hIGFBP-2 (other, human)
chain: EVLFRCPPCTPERLAACGPPPVAPPAAVAAVAGGARMPCAELVREPGCGCCSVCARLEGEACGVYTPRCGQGLRCYPHPGSELPLQALVMGEGTCEKRRDAEYGASPEQVADNGDDHSEGGLVENHVDSTMNMLGGGGSAGRKPLKSGMKELAVFREKVTEQHRQMGKGGKHHLGLEEPKKLRPPPARTPCQQELDQVLERISTMRLPDERGPLEHLYSLHIPNCDAHGLYNLKQCKMSLNGQRGECWCVNPNTGKLIQGAPTIRGDPECHLFYNEQQEARGVHTQRMQHHHHHH
notes: mature
B2: K234AHis hIGFBP-2 (other, human)
chain: B1 chain with A227K, K234A
notes: mature; also called K234A hIGFBP-2; K234AHis IGFBP-2
B3: K180A K181AHis hIGFBP-2 (other, human)
chain: B1 chain with K180A, K181A, A227K
notes: mature; also called K180A, K181A mutation
B4: K237AHis hIGFBP-2 (other, human)
chain: B1 chain with A227K, K237A
notes: mature

Key:
[1] = molecular target: T1, IGF-I (insulin-like growth factor I) (UniProt P05019 49-118); assay: SPR (BIAcore), IGF-I amine-coupled to CM5 chip; ratio against hIGFBP-2
T1 construct: Amine-coupled (70 RU) to a CM-5 biosensor chip; also added to HT-29 cells; also called IGF-1
T1 sequence (P05019 49-118 limits assumed): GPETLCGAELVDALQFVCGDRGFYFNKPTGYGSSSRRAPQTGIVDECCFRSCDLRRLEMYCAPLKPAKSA
Method: (§1) The IGF surface was regenerated with 10 mM HCl.
(§2) The dissociation constant (KD) was determined from the calculation of kd/kₐ, where kₐ is the association rate and kd is the dissociation rate.

[2] = molecular target: T2, IGF-II (insulin-like growth factor II) (UniProt P01344 25-91); assay: SPR (BIAcore), IGF-II amine-coupled to CM5 chip; ratio against hIGFBP-2
T2 construct: Amine-coupled (70 RU) to a CM-5 biosensor chip
T2 sequence (P01344 25-91 limits assumed): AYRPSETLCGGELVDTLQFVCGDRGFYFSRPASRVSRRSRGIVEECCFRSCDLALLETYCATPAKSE
Method: as §1
(§3) Table 3. […] Data was analysed using BIAevaluation software 3.0 and fit to a Langmuir 1:1 binding model. The dissociation constant (KD) was determined from the calculation of kd/kₐ, where kₐ is the association rate and kd is the dissociation rate.

[3] = molecular target: T2, IGF-II (insulin-like growth factor II); assay: SPR (BIAcore) on immobilised IGF-II; text summing up Table 3
Method: as §1, §3

[4] = molecular target: T1, IGF-I (insulin-like growth factor I); assay: SPR (BIAcore) on immobilised IGF-I; text summing up Table 2
Method: as §1, §2

| Binder | Rel. KD (KD of hIGFBP-2/KD of hIGFBP-2 mutant) [1] | Rel. KD (KD of hIGFBP-2/KD of hIGFBP-2 mutant) [2] | fold higher affinity than native hIGFBP-2 [3] [fold] | fold higher affinity than native hIGFBP-2 [4] [fold] |
| --- | --- | --- | --- | --- |
| B1 | 1.34 | 1.27 |  |  |
| B2 | 0.64 | 0.37 |  |  |
| B3 | 0.87 | 0.68 |  |  |
| B4 | 2.29 | 2.9 | ~2 | ~2 |
